Data on five molecules can be found in paper PMC2715020, “Identification, functional characterization and developmental regulation of sesquiterpene synthases from sunflower capitate glandular trichomes” (BMC Plant Biology, 2009).

Series [1] deals with T1, HaCS (HaTPS2) (Helianthus annuus, UniProt Q4U3F6).
T1 sequence (Q4U3F6 1-555): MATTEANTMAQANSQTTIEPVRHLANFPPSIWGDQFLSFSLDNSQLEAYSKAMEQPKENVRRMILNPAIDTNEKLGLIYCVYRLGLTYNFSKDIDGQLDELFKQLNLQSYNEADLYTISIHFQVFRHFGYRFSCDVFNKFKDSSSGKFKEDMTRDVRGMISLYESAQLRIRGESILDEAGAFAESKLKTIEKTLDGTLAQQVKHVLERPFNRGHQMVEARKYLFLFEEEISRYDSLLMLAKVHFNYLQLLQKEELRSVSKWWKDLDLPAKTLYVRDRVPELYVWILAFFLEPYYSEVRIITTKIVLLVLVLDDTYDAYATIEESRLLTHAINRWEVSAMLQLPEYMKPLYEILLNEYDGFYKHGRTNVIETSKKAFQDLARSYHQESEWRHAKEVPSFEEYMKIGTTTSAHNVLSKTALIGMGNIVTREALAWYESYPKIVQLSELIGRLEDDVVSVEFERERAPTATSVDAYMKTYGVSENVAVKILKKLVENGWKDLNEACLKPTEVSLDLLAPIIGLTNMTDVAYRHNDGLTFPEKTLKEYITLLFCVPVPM
Description: GC-MS of dodecane overlay, expression in S. cerevisiae EPY300. The note with it: FDP-overproducing yeast; HaCS and thioredoxin-HaCS. Format: cell-based. On the set-up: gene CS.

Series [2] concerns the target T1, HaCS (HaTPS2). Description: GC-MS of products after incubation with FDP. Format: biochemical. Further details: gene CS; N-terminal thioredoxin fusion (E. coli, Ni-NTA; also S. cerevisiae EPY300), and unfused in yeast. The note with it: thioredoxin fusion, 50 μM FDP, MgCl2 and MnCl2, pH 7.0, 30°C.
Substrate in the series “purified protein”: CC(C)=CCC/C(C)=C/CC/C(C)=C/CO[P@@](=O)(O)OP(=O)(O)O
Description: purified protein. Format: biochemical, Helianthus annuus. The note with it: 15 mM MOPSO, 10 mM MgCl2, 1 mM MnCl2, pH 7.0 (assay buffer), 30°C, FPP 0.125 to 30 μM.

In the case of `CC1=C[C@@H]2C(=C(C)CC[C@H]2C(C)C)CC1` [δ-cadinene], the “GC-MS of dodecane overlay, expression in S. cerevisiae EPY300” value at HaCS (HaTPS2) [1] was “One of the two main products was identified as δ-cadinene”.

`CC(C)=CCC/C(C)=C/CC/C(C)=C/COP(=O)(O)OP(=O)(O)O` [FPP]: the “GC-MS of products after incubation with FDP” value on HaCS (HaTPS2) [2] is “in vitro enzyme assay products with substrate FDP showed the presence of the parental mass”.

B1: HaGAS2 (HaTPS1b; native, thioredoxin removed) (Helianthus annuus) (protein)
chain: MAAVGASATLLTNTKSAEEPVRPVANFPPSVWGDLFLSFSLDNSMMEEYAEAMEEPKGQVRKLILDPTMDSNKKLSLIYTVHRLGLTYMFFKEIEGQLDRLFKEFNLEDYVEVDLYTISTNFQAFRHLGYKLSCDVFNKFKNYDSNTFKESITSDVRGMLGLYESAQLRLKGEKILDEASAFTETKLKSLVKTLEGSLAQQVKQSLKRPFHQGMPMVEARLYFSNYQEECSRHDSLLKLAKLHFNYLQLQQKEELRIVSQWWKDMRFQETTPYIRDRVPEIYLWILGLYFEPRYSLARIIATKITLFLVVLDDTYDAYATIEEVRLLTDAINRWDIGAMSQIPEYIRPFYKILLDEYAELEKQLAKEGRANSVIASKEAFQDIARGYLEEAEWTNSGYVASFPEYMKNGLITSAYNVISKSALVGMGEIVSEDALAWYESHPQILQASELISRLQDDVMTYQFERERGQSATGVDAYIKTYGVSEKEAIDELKKMIENAWKEINEGCLKPREVSMDLLAPILNLARMIDVVYRYDDGFTFPGKTLKEYITLLFVGSSPM
notes: full length, 559 residues; expressed in E. coli from pET-32 EK/LIC, thioredoxin part removed by enterokinase
In the case of B1, in the series “purified protein”, the Michaelis-Menten constant (Km) was found to be 0.74 µM.

B2: HaGAS1 (HaTPS1a; native, thioredoxin removed) (Helianthus annuus) (protein)
chain: MAAVGASATPLTNTKSTAEPVRPVANFPPSVWGDLFLSFSLDKSIMEEYAEAMEEPKEQVRRLILDPTMDSNKKLSLIYTVHRLGLTYMFLKEIEAQLDRLFKEFNLEDYVELDLYTISINFQAFRHLGYKLPCDVFNKFKNDDSTTFKESITGDVRGMLGLYESAQLRLKGENILDEASAFAETKLKSLVNTLEGSLAQQVKQSLRRPFHQGMPMVEARLYFSNYQEECSAHDSILKLAKLHFNYLQLQQKEELRIVSQWWKDMRFQETTPYIRDRVPEIYLWILGLYFEPRYSLARIIATKITLFLVVLDDTYDAYATIEEIRLLTDAINRWDISAMNQIPEYIRPFYKILLDEYAELEKQLAKEGRANSVIASKEAFQDIARGYLEEAEWTNSGYVASFPEYMKNGLITSAYNVISKSALVGMGEIVSEDALVWYESHPQILQASELISRLQDDVMTYQFERERGQSATGVDSYIKTYGVSEKVAIDELKKMIENAWKEINEGCLKPREVSMDLLAPILNLARMIDVVYRYDDGFTFPGKTLKEYITLLFVGSSPM
notes: expressed in E. coli from pET-32 EK/LIC, thioredoxin part removed by enterokinase
For the molecule B2, the Km in “purified protein” is 0.82 µM.

B3: thioredoxin-HaGAS1 fusion protein (Helianthus annuus) (protein)
chain: MAAVGASATPLTNTKSTAEPVRPVANFPPSVWGDLFLSFSLDKSIMEEYAEAMEEPKEQVRRLILDPTMDSNKKLSLIYTVHRLGLTYMFLKEIEAQLDRLFKEFNLEDYVELDLYTISINFQAFRHLGYKLPCDVFNKFKNDDSTTFKESITGDVRGMLGLYESAQLRLKGENILDEASAFAETKLKSLVNTLEGSLAQQVKQSLRRPFHQGMPMVEARLYFSNYQEECSAHDSILKLAKLHFNYLQLQQKEELRIVSQWWKDMRFQETTPYIRDRVPEIYLWILGLYFEPRYSLARIIATKITLFLVVLDDTYDAYATIEEIRLLTDAINRWDISAMNQIPEYIRPFYKILLDEYAELEKQLAKEGRANSVIASKEAFQDIARGYLEEAEWTNSGYVASFPEYMKNGLITSAYNVISKSALVGMGEIVSEDALVWYESHPQILQASELISRLQDDVMTYQFERERGQSATGVDSYIKTYGVSEKVAIDELKKMIENAWKEINEGCLKPREVSMDLLAPILNLARMIDVVYRYDDGFTFPGKTLKEYITLLFVGSSPM
notes: full length (559 residues) with uncleaved N-terminal thioredoxin and 6x-His tag (pET-32 EK/LIC), E. coli, Ni-NTA purified
In the case of B3, in “purified protein”, the Km is 1.06 µM.
